± gives the standard deviation of the averaged measurements.
B1: library; a variant is named by its letters at N, in order (parent)
chain: GCUGUCACCGGUGUAUUACCCUAGUGGUCGACCGGUCUGAUGAGUCUNNNNNNAGACGAAACAGC

Assays:
[1] = variants of: B1; test: normalized RNA/DNA level with ligand (relative to sTRSVctl = 100) (log10 (% of sTRSVctl)); ligand: hypoxanthine (xanthine aptamer); higher = less ribozyme self-cleavage, higher mRNA level; conditions: ligand concentration (+) RNA-Seq: 5 mM, HEK293T, reporter: mCherry (pCS4076), ligand present: yes
Procedure, shortened: (§1)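 Library plasmids carrying ribozyme switches linked to mCherry, or to eGFP in some ligand experiments, were transfected into HEK293T at 4 µg per 6-well well, with any ligand added 1 h earlier. Seventy-two hours on, total RNA was extracted with EDTA and reverse-transcribed, amplified, barcoded and sequenced. RNA level was RNA over DNA reads normalized to a spiked-in non-cleaving sequence or to the top sequences, then scaled and log-transformed. The top set was 25 sequences, the transform was ×100 and log10, and sequences needed ≥100 DNA reads.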

[2] = variants of: B1; test: normalized RNA/DNA level without ligand (relative to sTRSVctl = 100) (log10 (% of sTRSVctl)); ligand: hypoxanthine (xanthine aptamer); higher = less ribozyme self-cleavage, higher mRNA level; conditions: HEK293T, reporter: mCherry (pCS4076), ligand present: no
Procedure, shortened: as §1

| Variant | normalized RNA/DNA level with ligand (log10) [1] | normalized RNA/DNA level without ligand (log10) [2] |
| --- | --- | --- |
| CUCCGA | 1.96 ± 0.13 | 1.884 ± 0.0062 |
| CUCCGG | 1.93 ± 0.029 | 1.95 ± 0.065 |
| CUCCGC | 1.967 ± 0.019 | 1.95 ± 0.026 |
| CUCCGU | 1.95 ± 0.051 | 1.88 ± 0.019 |
| CUCAAU | 1.92 ± 0.036 | 1.792 ± 0.0044 |
| CUCAAC | 1.98 ± 0.052 | 1.926 ± 0.0052 |
| CUCAAG | 1.88 ± 0.0045 | 1.742 ± 0.0067 |
| CUCAAA | 1.919 ± 0.0021 | 1.785 ± 0.013 |
| CUACUU | 1.99 ± 0.028 | 1.83 ± 0.026 |
| CUACUC | 2.039 ± 0.013 | 1.95 ± 0.025 |
| CUACUG | 1.942 ± 0.0056 | 1.925 ± 0.0027 |
| AUAGCC | 1.936 ± 0.0032 | 1.82 ± 0.028 |
| AUAGCU | 1.935 ± 0.018 | 1.83 ± 0.005 |
| GUAACC | 1.9577 ± 0.00079 | 1.88 ± 0.089 |
| GUAACU | 1.94 ± 0.03 | 1.878 ± 0.005 |
| GUAACA | 1.89 ± 0.0062 | 1.8412 ± 0.00038 |
| CUAAGA | 1.947 ± 0.013 | 1.838 ± 0.011 |
| CUAAGG | 1.91 ± 0.032 | 1.75 ± 0.046 |
| CUAGAG | 1.88 ± 0.018 | 1.64 ± 0.023 |
| UUAAUG | 1.886 ± 0.0055 | 1.737 ± 0.0081 |
| UUAAUC | 1.95 ± 0.017 | 1.96 ± 0.058 |
| UUAAUU | 1.94 ± 0.041 | 1.84 ± 0.041 |
| GUAGUC | 1.976 ± 0.012 | 1.81 ± 0.05 |

| Variant | normalized RNA/DNA level with ligand (log10) [1] | normalized RNA/DNA level without ligand (log10) [2] |
| --- | --- | --- |
| GUAGUU | 1.96 ± 0.041 | 1.87 ± 0.046 |
| GUACUC | 1.93 ± 0.053 | 1.92 ± 0.032 |
| GUACUG | 1.883 ± 0.0029 | 1.53 ± 0.056 |
| GUACUU | 1.9422 ± 0.0012 | 1.889 ± 0.006 |
| GUACUA | 1.937 ± 0.014 | 1.86 ± 0.037 |
| CGUUUG | 1.96 ± 0.067 | 1.864 ± 0.0052 |
| CGUUUU | 1.92 ± 0.073 | 1.833 ± 0.014 |
| CUCAGU | 1.97 ± 0.061 | 1.89 ± 0.079 |
| CUCAGG | 1.95 ± 0.041 | 1.88 ± 0.026 |
| CUCAGA | 1.965 ± 0.012 | 1.8539 ± 0.00065 |
| CUCAGC | 2 ± 0.068 | 1.96 ± 0.01 |
| AUCAAC | 1.99 ± 0.031 | 1.84 ± 0.028 |
| AUCAAU | 1.89 ± 0.038 | 1.78 ± 0.058 |
| AUCAAA | 1.921 ± 0.011 | 1.79 ± 0.034 |
| GUACAU | 1.9 ± 0.034 | 1.77 ± 0.056 |
| GUACAC | 1.919 ± 0.0031 | 1.79 ± 0.041 |
| UUAUUG | 1.897 ± 0.017 | 1.714 ± 0.0023 |
| UUAUUC | 1.96 ± 0.045 | 1.936 ± 0.016 |
| UUAUUU | 1.91 ± 0.033 | 1.91 ± 0.031 |
| GUAAUA | 1.878 ± 0.0069 | 1.823 ± 0.0023 |
| CUAGUA | 1.918 ± 0.0099 | 1.8 ± 0.049 |
| CUAGUU | 1.919 ± 0.0027 | 1.9151 ± 0.00062 |
| GUCAUA | 1.957 ± 0.013 | 1.806 ± 0.013 |

| Variant | normalized RNA/DNA level with ligand (log10) [1] | normalized RNA/DNA level without ligand (log10) [2] |
| --- | --- | --- |
| GUCAUU | 1.97 ± 0.056 | 1.916 ± 0.015 |
| CUAUCG | 1.956 ± 0.016 | 1.94 ± 0.033 |
| CUAUCU | 1.9 ± 0.075 | 1.89 ± 0.042 |
| CUAUCA | 1.92 ± 0.041 | 1.86 ± 0.029 |
| CUAUCC | 1.93 ± 0.062 | 1.92 ± 0.049 |
| CUCCAA | 1.91 ± 0.047 | 1.869 ± 0.01 |
| CUCCAG | 1.89 ± 0.068 | 1.73 ± 0.057 |
| CUCCAC | 1.92 ± 0.02 | 1.92 ± 0.036 |
| GUAUGC | 1.868 ± 0.0093 | 1.46 ± 0.08 |
| UUCACU | 1.956 ± 0.0023 | 1.76 ± 0.039 |
| UUCACC | 1.984 ± 0.015 | 2 ± 0.05 |
| UUCACG | 1.93 ± 0.036 | 1.8 ± 0.031 |
| AUAGGU | 1.908 ± 0.016 | 1.587 ± 0.015 |
| AUAGGC | 1.91 ± 0.025 | 1.776 ± 0.0031 |
| GUACCC | 1.9 ± 0.045 | 1.8666 ± 0.0018 |
| GUACCU | 1.985 ± 0.016 | 1.9131 ± 0.00047 |
| CUACAG | 1.91 ± 0.028 | 1.73 ± 0.039 |
| CUACAC | 1.91 ± 0.026 | 1.77 ± 0.029 |
| CUACAU | 1.95 ± 0.075 | 1.7979 ± 0.00079 |
| UGUUUC | 1.98 ± 0.071 | 2.02 ± 0.047 |
| UGUUUU | 1.97 ± 0.069 | 1.888 ± 0.011 |
| CUCACG | 1.93 ± 0.024 | 1.913 ± 0.0027 |
| CUCACA | 1.911 ± 0.016 | 1.83 ± 0.021 |

| Variant | normalized RNA/DNA level with ligand (log10) [1] | normalized RNA/DNA level without ligand (log10) [2] |
| --- | --- | --- |
| CUAACC | 1.91 ± 0.051 | 1.83 ± 0.038 |
| CUAACA | 1.88 ± 0.069 | 1.84 ± 0.031 |
| CUAACU | 1.92 ± 0.033 | 1.869 ± 0.0023 |
| CUAACG | 1.923 ± 0.017 | 1.88 ± 0.033 |
| GUAGCG | 1.87 ± 0.02 | 1.535 ± 0.0049 |
| GUAGCA | 1.8839 ± 9.6e-05 | 1.8 ± 0.023 |
| UUCCUA | 1.94 ± 0.016 | 1.89 ± 0.0066 |
| GUCCGA | 1.9508 ± 0.00054 | 1.732 ± 0.013 |
| GUCCGC | 1.9 ± 0.055 | 1.85 ± 0.024 |
| GUCCGU | 1.891 ± 0.0098 | 1.86 ± 0.041 |
| GUAGAU | 1.87 ± 0.092 | 1.758 ± 0.00084 |
| GUAGAC | 1.89 ± 0.041 | 1.69 ± 0.025 |
| CUAGGU | 1.94 ± 0.028 | 1.88 ± 0.026 |
| CUAGGC | 1.94 ± 0.029 | 1.86 ± 0.086 |
| CUCAUG | 1.96 ± 0.042 | 1.91 ± 0.024 |
| CUCAUU | 1.99 ± 0.067 | 2.01 ± 0.08 |
| UUACGG | 1.94 ± 0.04 | 1.85 ± 0.029 |
| UUACGC | 1.94 ± 0.029 | 1.81 ± 0.054 |
| UUACGA | 1.923 ± 0.01 | 1.89 ± 0.022 |
| AUAUUA | 1.868 ± 0.0053 | 1.82 ± 0.028 |
| AUAUUU | 1.903 ± 0.0024 | 1.89 ± 0.057 |
| GUAUAA | 1.87 ± 0.052 | 1.78 ± 0.02 |
| GUAUCC | 1.96 ± 0.025 | 1.86 ± 0.043 |

| Variant | normalized RNA/DNA level with ligand (log10) [1] | normalized RNA/DNA level without ligand (log10) [2] |
| --- | --- | --- |
| GUAUCG | 1.9 ± 0.042 | 1.57 ± 0.017 |
| GUAUCA | 1.96 ± 0.049 | 1.88 ± 0.02 |
| AUAACC | 1.943 ± 0.0094 | 1.8816 ± 0.0015 |
| AUAACU | 1.93 ± 0.034 | 1.88 ± 0.027 |
| AUAACG | 1.87 ± 0.062 | 1.43 ± 0.11 |
| UUCAGU | 1.947 ± 0.013 | 1.83 ± 0.036 |
| UUCAGA | 1.96 ± 0.037 | 1.823 ± 0.0059 |
| UUCAGC | 1.94 ± 0.026 | 1.93 ± 0.02 |
| UUCAGG | 1.92 ± 0.025 | 1.79 ± 0.053 |
| UUCAAC | 1.94 ± 0.044 | 1.873 ± 0.011 |
| AUAAAA | 1.88 ± 0.031 | 1.8 ± 0.04 |
| GUCCAU | 1.95 ± 0.028 | 1.852 ± 0.0035 |
| GUCAAC | 1.95 ± 0.02 | 1.748 ± 0.0031 |
| GUCAAU | 1.925 ± 0.015 | 1.8 ± 0.054 |
| UUAGGU | 1.92 ± 0.028 | 1.8 ± 0.031 |
| UUAGGA | 1.857 ± 0.012 | 1.66 ± 0.032 |
| AUCCUA | 1.94 ± 0.062 | 1.9 ± 0.043 |
| CUACCA | 1.93 ± 0.053 | 1.82 ± 0.02 |
| CUACCU | 1.96 ± 0.092 | 1.9389 ± 0.0018 |
| CUACCG | 1.95 ± 0.025 | 1.8 ± 0.026 |
| CUACCC | 1.935 ± 0.014 | 1.88 ± 0.06 |
| UUACAA | 1.96 ± 0.022 | 1.796 ± 0.012 |
| UUACAG | 1.92 ± 0.029 | 1.63 ± 0.036 |
